Reference: the Immune Epitope Database (IEDB)

Columns and labels:
HLA-B*18:01 = assay: IEDB peptide-MHC binding, purified MHC/competitive/radioactivity; filed as Kd, often an IC50 or EC50 that approximates it; ≥ and ≤ were set here for values at or beyond the usual limits of such assays
HLA-B*45:01 = assay: as above
HLA-B*40:01 [1] = assay: as above
HLA-B*40:02 = assay: as above
HLA-B*44:02 = assay: as above
HLA-B*44:03 = assay: as above
HLA-B*39:01 = assay: IEDB peptide-MHC binding, purified MHC/competitive/fluorescence; filed as Kd, often an IC50 or EC50 that approximates it; ≥ and ≤ were set here for values at or beyond the usual limits of such assays; details: source organism: Rhizobium wenxiniae
HLA-B*07:02 = assay: IEDB peptide-MHC binding, purified MHC/direct/fluorescence; filed as Kd, often an IC50 or EC50 that approximates it; ≥ and ≤ were set here for values at or beyond the usual limits of such assays; details: source organism: Rhizobium wenxiniae
HLA-B*08:01 = assay: as above
HLA-B*15:01 = assay: as above; details: source organism: Rhizobium wenxiniae
HLA-B*27:05 = assay: as above; details: source organism: Rhizobium wenxiniae
HLA-A*01:01 = assay: as above; details: source organism: Rhizobium wenxiniae
HLA-A*02:01 = assay: as above; details: source organism: Rhizobium wenxiniae
HLA-B*40:01 [2] = assay: as above; details: source organism: Rhizobium wenxiniae
HLA-A*03:01 = assay: as above; details: source organism: Rhizobium wenxiniae
HLA-A*31:01 = assay: as above; details: source organism: Rhizobium wenxiniae
HLA-A*69:01 = assay: as above; details: source organism: Rhizobium wenxiniae
HLA-A*26:01 = assay: as above; details: source organism: Rhizobium wenxiniae
HLA-A*11:01 = assay: as above; details: source organism: Rhizobium wenxiniae
HLA-B*51:01 = assay: IEDB peptide-MHC binding, purified MHC/competitive/radioactivity; filed as Kd, often an IC50 or EC50 that approximates it; ≥ and ≤ were set here for values at or beyond the usual limits of such assays; details: source organism: Dengue virus 2 Jamaica/1409/1983
HLA-B*57:01 = assay: IEDB peptide-MHC binding, purified MHC/direct/fluorescence; filed as Kd, often an IC50 or EC50 that approximates it; ≥ and ≤ were set here for values at or beyond the usual limits of such assays; details: source organism: Entamoeba histolytica HM-1:IMSS
HLA-B*58:01 = assay: as above; details: source organism: Entamoeba histolytica HM-1:IMSS
[3] = source organism: SARS coronavirus Tor2
[4] = source organism: Lassa virus Josiah
[5] = source organism: Mammarenavirus whitewaterense
[6] = source organism: Mammarenavirus juninense
[7] = source organism: Mammarenavirus machupoense

Sequence	Kd (HLA-B*18:01; [3]) [nM]	Kd (HLA-B*45:01; [3]) [nM]	Kd (HLA-B*40:01 [1]; [3]) [nM]	Kd (HLA-B*40:02; [3]) [nM]	Kd (HLA-B*44:02; [3]) [nM]	Kd (HLA-B*44:03; [3]) [nM]	other results
QELGKYEQYI	≥ 70500	≥ 20600	13000	507	207	187	
FHLRSRFAF							Kd (HLA-B*39:01): ≤ 1 nM; Kd (HLA-B*07:02): ≥ 20000 nM; Kd (HLA-B*08:01; source organism: Rhizobium wenxiniae): 113 nM; Kd (HLA-B*15:01): ≥ 20000 nM; Kd (HLA-B*27:05): ≥ 20000 nM; Kd (HLA-A*01:01): ≥ 20000 nM; Kd (HLA-A*02:01): ≥ 20000 nM; Kd (HLA-B*40:01 [2]): ≥ 20000 nM; Kd (HLA-A*03:01): ≥ 20000 nM; Kd (HLA-A*31:01): ≥ 20000 nM; Kd (HLA-A*69:01): ≥ 20000 nM; Kd (HLA-A*26:01): ≥ 20000 nM; Kd (HLA-A*11:01): ≥ 20000 nM
YLKPKIWRF							Kd (HLA-B*08:01; source organism: Campylobacter jejuni subsp. jejuni 81-176): 8 nM
DEWSVATFY	2.82	≥ 77800	≥ 76200	≥ 77300	316	10.4	
AEAQMSIQL							Kd (HLA-B*18:01; [4]): ≥ 23700 nM; Kd (HLA-B*45:01; [4]): 246 nM; Kd (HLA-B*40:01 [1]; [4]): 22.9 nM; Kd (HLA-B*40:02; [4]): 12.6 nM; Kd (HLA-B*44:02; [4]): 37.4 nM; Kd (HLA-B*44:03; [4]): 106 nM
IEELFYSYAT	786	10.6	1520	51.9	326	205	
SDSVCACGL							Kd (HLA-B*18:01; [5]): ≥ 77500 nM; Kd (HLA-B*45:01; [5]): 10600 nM; Kd (HLA-B*40:01 [1]; [5]): ≥ 44000 nM; Kd (HLA-B*40:02; [5]): 3880 nM; Kd (HLA-B*44:02; [5]): 3090 nM; Kd (HLA-B*44:03; [5]): 2830 nM
KEFTRPLISG	≥ 70500	2640	1600	19500	10100		
GEILLLEWL	4960	843	0.363	19500	9.44	1.51	
LDLVLLNLL							Kd (HLA-B*18:01; [6]): ≥ 43600 nM; Kd (HLA-B*45:01; [6]): 12500 nM; Kd (HLA-B*40:01 [1]; [6]): 18700 nM; Kd (HLA-B*40:02; [6]): 48.5 nM; Kd (HLA-B*44:02; [6]): ≥ 77900 nM; Kd (HLA-B*44:03; [6]): ≥ 45400 nM
QELGHEDLMA	≥ 70500	671	≥ 26900	2580	4150	2350	
DPFPQSNAPI							Kd (HLA-B*51:01): 690 nM
SSTDQQEWM							Kd (HLA-B*57:01): ≥ 20000 nM; Kd (HLA-B*58:01): 3870 nM
REIGFIVPGL	8670	103	0.132	0.408	14.3	4.29	
SEEVVENPTI	≥ 48700	277	1050	402	471	1040	
VDYGVRFFFY	≥ 38100	451	16800	≥ 30400	823	789	
KEINFLSQT							Kd (HLA-B*18:01; [7]): ≥ 28300 nM; Kd (HLA-B*45:01; [7]): 643 nM; Kd (HLA-B*40:01 [1]; [7]): ≥ 63700 nM; Kd (HLA-B*40:02; [7]): 15.1 nM; Kd (HLA-B*44:02; [7]): 16100 nM; Kd (HLA-B*44:03; [7]): 17300 nM
